This note sets out measurements from doi:10.1101/2024.07.27.605439.

Test [1] has as its target Gαi1-V185F/H213Q double mutant (human) (UniProt P63096).
In test [2] the target is Gαi1-H213Q single mutant (human) (UniProt P63096).
Test [3] deals with Gαi1-V185F single mutant (human) (UniProt P63096).
Test [4] concerns the target Gαs-D229S single mutant (human) (UniProt P63092).
In test [5] the target is Gαs-F208V/D229S/Q236H triple mutant (human) (UniProt P63092).

The substance “RGS domain of human RGS16 (residue 86–205) (domain or fragment)” had an EC50 of RGS16 GAP activity (dose response) towards Gαi1-V185F/H213Q in test [1] of 45 nM. Moreover, in test [2], the EC50 of RGS16 GAP activity (dose response) towards Gαi1-H213Q was 7 nM. The substance also had an EC50 of RGS16 GAP activity (dose response) towards Gαi1-V185F in test [3] of 4 nM. Besides, the EC50 of RGS16 GAP activity (dose response) towards Gαs-D229S in test [4] was determined as 800 nM. The EC50 of RGS16 GAP activity (dose response) towards Gαs-F208V/D229S/Q236H in test [5] turned out to be 9 nM.
